Laboratory results published in PMC8049983.

Biological target: V3A3E3 PA conjugated to carboxytetramethylrhodamine
Test: FRET or BRET

FRET ratio: 0.6 to 0.7
Substance: V3A3E3 PA conjugated to fluorescein isothiocyanate (peptide)
